Results published in paper PMC11847488, “Hydroxycinnamoyl-coenzyme A: tetrahydroxyhexanedioate hydroxycinnamoyl transferase (HHHT) from Phaseolus vulgaris L.: phylogeny, expression pattern, kinetic parameters, and active site analysis” (PeerJ, 2025).

What was measured:
Experiment in all cases: purified protein
Type in all cases: biochemical, Phaseolus vulgaris
purified protein [1] = substrate: CC(C)(COP(=O)(O)OP(=O)(O)OC[C@H]1O[C@@H](n2cnc3c(N)ncnc32)[C@H](O)[C@@H]1OP(=O)(O)O)[C@@H](O)C(=O)NCCC(=O)NCCSC(=O)/C=C/c1ccc(O)c(O)c1; conditions: co-substrate saccharic acid 20 mM, 100 mM sodium phosphate, pH 7.5, 1 mM EDTA, 25 °C
purified protein [2] = substrate: CC(C)(COP(=O)(O)OP(=O)(O)OC[C@H]1O[C@@H](n2cnc3c(N)ncnc32)[C@H](O)[C@@H]1OP(=O)(O)O)[C@@H](O)C(=O)NCCC(=O)NCCSC(=O)/C=C/c1ccc(O)cc1; conditions: co-substrate saccharic acid 20 mM, 100 mM sodium phosphate, pH 7.5, 1 mM EDTA, 25 °C
purified protein [3] = substrate: COc1cc(/C=C/C(=O)SCCNC(=O)CCNC(=O)[C@H](O)C(C)(C)COP(=O)(O)OP(=O)(O)OC[C@H]2O[C@@H](n3cnc4c(N)ncnc43)[C@H](O)[C@@H]2OP(=O)(O)O)ccc1O; conditions: co-substrate saccharic acid 20 mM, 100 mM sodium phosphate, pH 7.5, 1 mM EDTA, 25 °C
purified protein [4] = substrate: O=C(O)[C@@H](O)[C@@H](O)[C@H](O)[C@@H](O)C(=O)O; conditions: co-substrate p-coumaroyl-CoA 100 μM, 100 mM sodium phosphate, pH 7.5, 1 mM EDTA, 25 °C
purified protein [5] = substrate: O=C(O)[C@@H](O)[C@H](O)[C@H](O)[C@@H](O)C(=O)O; conditions: co-substrate p-coumaroyl-CoA 100 μM, 100 mM sodium phosphate, pH 7.5, 1 mM EDTA, 25 °C

B1: HHHT (PvHHHT) (Phaseolus vulgaris) (protein)
chain: MVTIVASYRVLPCEETPKGHLWLADSDQVVRSGHTPTFYVYQAKHNHDTNERLRKSLGEILVHYYPVAGRLSLAEDARIQLDCNAKGVTFIEAETTKSMADYGDFSPGVVAELVPKIDYTQPVEEIPLMLVQSTRLPGGNGFVIGLAVCHVLSDGLGSIQFINSWAKLGRGETLEPHELPYLDRTVLKHQHSSTSPSPCFDHPELKPLPLKLGSSDINAEQKKKTRAVLLKLTRQQVEKLKKEANEQPLQEGVRAYSRFEALAGHIWRSASKARELEEKQPTVVRFNADIRSRVIPPLPKNYYGNALAATVTPKCYVGEIVSKPLSYAAQKVREAIEKLTNEYIRSQLKNVLGEEQLDCIRRLFMGEGERRNVPFAGNPNLHITSWMSMPLYEADFGWGKPVNFGLAYVFAQDRAVIILSPHGDGSIVISMTFQEEHLELFKKFFYETI
notes: full length, N-terminal 6xHis tag (pET28a(+)), codon-optimized, E. coli Rosetta 2 (DE3) pLysS, IMAC purified; tag cleavage not mentioned
B1 showed a Km (purified protein [1]) of 5.8 ± 0.4 µM, a kcat (purified protein [1]) of 3.4 ± 0.1 s⁻¹ and a kcat/Km (purified protein [1]) of 590000 ± 40000 M⁻¹ s⁻¹. It also gave a Km (purified protein [2]) of 7.2 ± 0.5 µM, a kcat (purified protein [2]) of 5.9 ± 0.1 s⁻¹ and a kcat/Km (purified protein [2]) of 820000 ± 60000 M⁻¹ s⁻¹. It also gave a Km (purified protein [3]) of 9.6 ± 0.4 µM, a kcat (purified protein [3]) of 6 ± 0.1 s⁻¹ and a kcat/Km (purified protein [3]) of 630000 ± 20000 M⁻¹ s⁻¹. The Km (purified protein [4]) was 5,200 ± 500 μM, the kcat (purified protein [4]) was 6.4 ± 0.2 s⁻¹ and the kcat/Km (purified protein [4]) was 1200 ± 100 M⁻¹ s⁻¹. The Km (purified protein [5]) was 4,400 ± 700 μM, the kcat (purified protein [5]) was 1.5 ± 0.1 s⁻¹ and the kcat/Km (purified protein [5]) was 340 ± 50 M⁻¹ s⁻¹.
